Several values for one entry are separate records, joined by “and”; a condition that tells them apart may be missing. Identical values can stand only once.
B1: Fructose-bisphosphate aldolase A, P00883 (parent)
chain: MPHSHPALTPEQKKELSDIAHRIVAPGKGILAADESTGSIAKRLQSIGTENTEENRRFYRQLLLTADDRVNPCIGGVILFHETLYQKADDGRPFPQVIKSKGGVVGIKVDKGVVPLAGTNGETTTQGLDGLSERCAQYKKDGADFAKWRCVLKIGEHTPSALAIMENANVLARYASICQQNGIVPIVEPEILPDGDHDLKRCQYVTEKVLAAVYKALSDHHIYLEGTLLKPNMVTPGHACTQKYSHEEIAMATVTALRRTVPPAVTGVTFLSGGQSEEEASINLNAINKCPLLKPWALTFSYGRALQASALKAWGGKKENLKAAQEEYVKRALANSLACQGKYTPSGQAGAAASESLFISNHAY

Variants of: B1
Details: Oryctolagus cuniculus; pH 7.4; Thermal; DSC; sodium phosphate 10 mM; transition: 3; reversible: yes; structure 1ADO; whole UniProt chain shown

| Variant | Tm | change of melting temperature, mutant - wild type (higher = more stable) | unfolding enthalpy (calorimetric) |
| --- | --- | --- | --- |
| D129Q | 45.9 °C and 47.1 °C | -9.8 °C and -11.6 °C | 67 kcal/mol and 77 kcal/mol |
| D129V | 43.9 °C and 46.5 °C | -11.8 °C and -12.2 °C | 91 kcal/mol and 78 kcal/mol |
| D129G | 44 °C and 46 °C | -11.7 °C and -12.7 °C | 67 kcal/mol and 73 kcal/mol |
| D129N | 45.6 °C and 47 °C | -10.1 °C and -11.7 °C | 80 kcal/mol and 83 kcal/mol |
| D129A | 46.8 °C | -11.9 °C | 71 kcal/mol |

— FireProtDB (doi:10.1002/pro.5560030904)
